Data from EP4681729A1.

Assays:
[1] = molecular target: h-PVRIG-his (his-tagged human PVRIG recombinant protein) (human) (UniProt Q6DKI7); assay: ELISA, plate coated with PVRIG-his
[2] = molecular target: h-PVRIG-his (his-tagged human PVRIG recombinant protein) (human) (UniProt Q6DKI7); assay: ELISA, human PVRIG recombinant protein
[3] = molecular target: h-PVRIG-mIgG2a Fc (mouse IgG2a Fc-tagged human PVRIG recombinant protein) (human; mouse) (UniProt Q6DKI7); assay: blocking ELISA (method of Example 2-3), human PVRL2 as the ligand that is blocked
Chain of h-PVRIG-mIgG2a Fc (mouse IgG2a Fc-tagged human PVRIG recombinant protein) (human; mouse) (Q6DKI7 41-171 limits assumed): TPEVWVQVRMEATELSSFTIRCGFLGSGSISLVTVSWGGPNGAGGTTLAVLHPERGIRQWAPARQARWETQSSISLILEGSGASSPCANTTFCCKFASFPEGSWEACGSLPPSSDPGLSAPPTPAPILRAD

[4] = molecular target: h-PVRIG-his (his-tagged human PVRIG recombinant protein) (human) (UniProt Q6DKI7); assay: Fortebio BLI, antibody on Protein A sensor, his-tagged human PVRIG 64-4 nM, 1:1 fit
[5] = molecular target: h-PVRIG-mIgG2a Fc (mouse IgG2a Fc-tagged human PVRIG recombinant protein) (human; mouse) (UniProt Q6DKI7); assay: competition ELISA, coated h-PVRIG-mIgG2a Fc, his-tagged PVRL2 as the ligand that is blocked

Chain of h-PVRIG-his (his-tagged human PVRIG recombinant protein) (human) (Q6DKI7 41-171 limits assumed): as above

EC50 [1]: 2.86 nM | EC50 [2]: 1.41 nM | IC50 [3]: 0.964 nM | Kd [4]: 0.219 nM | koff [4]: 1.61e-05 s⁻¹ | kon [4]: 737000 M⁻¹ s⁻¹ | IC50 [5]: 1.16 nM
B1: Tab5 (antibody, from another filing, V domains shown)
VH: EVQLVESGGGVVKPGGSLRLSCAASGFTFGTSSMNWVRQAPGKGLEWVAVISFDGTEIHYADSVKGRFTISRDNSKSTVFLQMNSLRPDDTALYYCAKGSGNIYFYSGMDVWGQGTTVTVSS
VL: DIQMTQSPSTLSASVGDRVTITCRAGQSISGWLAWFQQKPGKAPNLLIYETSTLESGVPSRFSGSGSGTEYTLTISSLQPDDFATYYCQQYYSYPLTFGQGTKVEIKR
